According to patent WO2014051109A1 (dated 2014):
Positions count from the first letter of the chain named. Blank lines part the entries; values can stand above or below the molecule they belong to.

How the values were obtained:
[1] = target: human BMP9 recombinant protein (prepared by the method of Example 12 of WO2010/126169; N-terminal His-type hBMP9 complex, vector pLN1V5_hBMP9) (human) (UniProt Q9UK05); assay: SPR (BIAcore 2000), antibody captured by anti-mouse IgG on CM5, human BMP9 as analyte, single cycle kinetics
[2] = target: T1, human BMP9 recombinant protein (prepared by the method of Example 12 of WO2010/126169); N-terminal His-type … (human, UniProt Q9UK05 23-319; Q9UK05 320-429); assay: SPR (BIAcore 2000), ratio of Kd values against the R&D antibody
T1 construct: not shown: N-terminal His tag (His6)
T1 sequence 1: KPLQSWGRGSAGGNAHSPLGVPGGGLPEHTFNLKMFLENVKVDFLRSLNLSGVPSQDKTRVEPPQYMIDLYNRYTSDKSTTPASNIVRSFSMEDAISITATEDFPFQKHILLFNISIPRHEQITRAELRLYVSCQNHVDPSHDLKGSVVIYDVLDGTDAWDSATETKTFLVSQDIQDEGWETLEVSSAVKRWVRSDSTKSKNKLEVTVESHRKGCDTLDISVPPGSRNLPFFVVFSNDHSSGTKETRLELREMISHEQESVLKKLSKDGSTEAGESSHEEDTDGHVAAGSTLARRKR
T1 sequence 2: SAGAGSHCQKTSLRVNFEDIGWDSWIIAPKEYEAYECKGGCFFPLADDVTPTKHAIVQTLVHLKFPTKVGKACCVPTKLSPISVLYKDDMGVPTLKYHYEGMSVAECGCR

[3] = target: T2, human mature dimer BMP9 recombinant protein (R&D Systems, Cat#3209-BP) (human, UniProt Q9UK05 320-429); assay: cell-based or functional assay
T2 sequence: T1 sequence 2

[4] = target: T3, human BMP9/10 chimeric protein C (human, UniProt Q9UK05 23-319; Q9UK05 320-429); assay: solid-phase antigen ELISA, recombinant 3C7-3-1 antibody 1000 ng/mL on immobilized antigen (3 ug/mL)
T3 construct: also called BMP9/10 chimeric recombinant protein C; pLN1V5_hBMP9/10C product; not shown: His6 tag
T3 chain 1: T1 sequence 1
T3 chain 2: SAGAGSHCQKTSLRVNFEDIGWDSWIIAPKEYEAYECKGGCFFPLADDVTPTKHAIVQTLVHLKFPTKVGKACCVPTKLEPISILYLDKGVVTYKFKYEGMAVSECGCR

[5] = target: T4, human mature dimer BMP10 recombinant protein (R&D Systems, Cat#2926-BP) (human, UniProt O95393 317-424); assay: solid-phase antigen ELISA, biotin-labeled antibody on immobilized BMP10
T4 construct: Bought protein; also called human BMP10
T4 sequence: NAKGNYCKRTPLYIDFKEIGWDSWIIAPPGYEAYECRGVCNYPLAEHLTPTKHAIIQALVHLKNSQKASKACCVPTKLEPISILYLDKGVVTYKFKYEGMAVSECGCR

[6] = target: T1, human BMP9 recombinant protein …; assay: SPR (BIAcore 2000), antibody captured by anti-mouse IgG on CM5, human BMP9 as analyte, single cycle kinetics
[7] = target: T2, human mature dimer BMP9 recombinant …; assay: solid-phase antigen ELISA, biotin-labeled antibody 100 ng/mL on immobilized BMP9

- Kd [1]: 0.616 nM
Molecule: R&D antibody (anti-human BMP9 mouse monoclonal antibody, R&D Systems, clone No. 360107)

- binding activity, fold of the R&D antibody [2]: 23.3 fold
- BMP9-dependent ALK1-derived signal inhibitory activity (luciferase, human ALK1 reporter cells ALK1/p(GCCG)12-Luc/HepG2(38.5), 10 ng/mL BMP9) [3]: ~0.0625 fold of the R&D antibody
- binding result [4]: binds
- binding result [5]: no binding (tested: 100 ng/mL antibody)
- Kd [6]: 0.0264 nM
B1: 3C7-3-1 antibody (antibody, V domains shown)
VH: EVQLQQSGPELVKPGASVKISCKASGNSFTGYYMNWMKQSPEKSLEWIGEINPSTGATTYNQKFKAKATLTVDKSSSTAYMQLKSLTSEDFAVYYCTRRAAYYFDYWGQGTTLTVSS
VL: QIVLTQSPALMSASPGEKVTMTCSASSSVNYMYWYQQKPRSSPKPWIYLTSNLASGVPARFSGSGSGTSYSLTISSMEAEDAATYYCQQWSSNPRTFGGGTKLEIK
notes: Mouse IgG1, kappa; also called recombinant 3C7-3-1 antibody (mouse IgG1, kappa)

- binding result [7]: binds
- binding result [5]: no binding (tested: 100 ng/mL antibody)
B2: 3B7-3-3 antibody (antibody, V domains shown)
VH: EVQLQQSRPELVKPGASVKISCKASDYSFTDYYMNWVKQSPDKSLEWIGEISPSSGGTTYNQKFKAKATLTVDKSSSTAYMQLKSLTSEDSAVYYCATRGAFYFDYWGQGTALTVSS
VL: B1 VL with S14F, N30S, A59T, Y86F
notes: Mouse monoclonal antibody from a hybridoma (BMP9 KO mouse); also called anti-human BMP9 monoclonal antibody 3B7-3-3
